B1: pep7 (FIG. 4B numbering), thioredoxin prey fusion (designed binder, not shown: large carriers)
chain: MSDKIIHLTDDSFDTDVLKADGAILVDFWAEWCGPQLYAGCYLGVVIASSLSIRVGPCKMIAPILDEIADEYQGKLTVAKLNIDQNPGTAPKYGIRGIPTLLLFKNGEVAATKVGALSKGQLKEFLDANLA
B2: pep9 (FIG. 4B numbering), thioredoxin prey fusion (designed binder, not shown: large carriers)
chain: MSDKIIHLTDDSFDTDVLKADGAILVDFWAEWCGPQQRFVFSPSWFTCAGTSDFWGPEPLFDWTRDGPCKMIAPILDEIADEYQGKLTVAKLNIDQNPGTAPKYGIRGIPTLLLFKNGEVAATKVGALSKGQLKEFLDANLA
B3: pep14 (FIG. 4B numbering), thioredoxin prey fusion (designed binder, not shown: large carriers)
chain: MSDKIIHLTDDSFDTDVLKADGAILVDFWAEWCGPWSPELLRAMVAFRWLLERRPGPCKMIAPILDEIADEYQGKLTVAKLNIDQNPGTAPKYGIRGIPTLLLFKNGEVAATKVGALSKGQLKEFLDANLA
B4: Cdk7 (enzyme, not shown: small tags and cut ends)
chain: ALDVKSRAKRYEKLDFLGEGQFATVYKARDKNTNQIVAIKKIKLGHRSEAKDGINRTALREIKLLQELSHPNIIGLLDAFGHKSNISLVFDFMETDLEVIIKDNSLVLTPSHIKAYMLMTLQGLEYLHQHWILHRDLKPNNLLLDENGVLKLADFGLAKSFGSPNRAYTHQVVTRWYRAPELLFGARMYGVGVDMWAVGCILAELLLRVPFLPGDSDLDQLTRIFETLGTPTEEQWPDMCSLPDYVTFKSFPGIPLHHIFSAAGDDLLDLIQGLFLFNPCARITATQALKMKYFSNRPGPTPGCQLPRPNCPVETLKEQSNPALAIKRKRTEALEQGGLPKKLIF
notes: Bait strain named only on the sheet
B5: pep6 (FIG. 4B numbering), thioredoxin prey fusion (designed binder, not shown: large carriers)
chain: MSDKIIHLTDDSFDTDVLKADGAILVDFWAEWCGPRVKLGYSFWAQSLLRCISVGGPCKMIAPILDEIADEYQGKLTVAKLNIDQNPGTAPKYGIRGIPTLLLFKNGEVAATKVGALSKGQLKEFLDANLA
B6: pep13 (FIG. 4B numbering), thioredoxin prey fusion (designed binder, not shown: large carriers)
chain: MSDKIIHLTDDSFDTDVLKADGAILVDFWAEWCGPPVCCMMYGHRTAPHSVFNVDGPCKMIAPILDEIADEYQGKLTVAKLNIDQNPGTAPKYGIRGIPTLLLFKNGEVAATKVGALSKGQLKEFLDANLA
B7: pep12 (FIG. 4B numbering), thioredoxin prey fusion (designed binder, not shown: large carriers)
chain: MSDKIIHLTDDSFDTDVLKADGAILVDFWAEWCGPRPLTGRWVVWGRRHEECGLTGPCKMIAPILDEIADEYQGKLTVAKLNIDQNPGTAPKYGIRGIPTLLLFKNGEVAATKVGALSKGQLKEFLDANLA

How the values were obtained:
Cdk4 [1] = target: T1, Cdk4 (Homo sapiens (Human), UniProt P11802 2-303); experiment: yeast interaction trap mating assay (FIG. 4A)
T1 construct: construct not described

LexA-Cdk3 bait = target: T2, LexA-Cdk3 bait (human, UniProt Q00526 1-305, limits assumed); experiment: yeast interaction trap mating assay, lacZ reporter on Xgal
T2 construct: also called human Cdk3; not shown: bacterial LexA protein

CDC28 = target: T3, CDC28 (Saccharomyces cerevisiae (strain ATCC …, UniProt P00546 1-298)); experiment: as above
T3 construct: bait construct not described

Cdc2 = target: T4, Cdc2 (Homo sapiens (Human), UniProt P06493 1-297); experiment: as above
T4 construct: bait construct and species not described

Drosophila Cdc2c = target: T5, Drosophila Cdc2c (Drosophila, UniProt P23573 1-314, limits assumed); experiment: as above
T5 construct: bait construct not described

Cdk6 = target: T6, Cdk6; experiment: as above
T6 construct: Bait strain named only on the sheet

Cdk7 = target: B4; experiment: as above
Cdk4 [2] = target: T1, Cdk4; experiment: as above
[3] = target: B5; experiment: as above
[4] = target: B1; experiment: as above
[5] = target: B2; experiment: as above
[6] = target: B7; experiment: as above
[7] = target: B6; experiment: as above
[8] = target: B3; experiment: as above
[9] = target: human Cdk2 expressed from a plasmid in cdc28ts yeast (human, UniProt P24941 1-298); experiment: cell-based or functional assay

T5 sequence (P23573 whole entry): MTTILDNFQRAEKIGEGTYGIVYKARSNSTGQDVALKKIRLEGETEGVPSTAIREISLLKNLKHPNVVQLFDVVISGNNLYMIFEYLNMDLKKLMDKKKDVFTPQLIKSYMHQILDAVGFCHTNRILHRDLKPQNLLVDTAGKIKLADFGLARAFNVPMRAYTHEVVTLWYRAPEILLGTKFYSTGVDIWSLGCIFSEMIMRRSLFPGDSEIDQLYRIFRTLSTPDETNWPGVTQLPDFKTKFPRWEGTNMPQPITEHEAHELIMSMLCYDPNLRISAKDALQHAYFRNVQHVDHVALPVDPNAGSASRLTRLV
T2 sequence (Q00526 whole entry): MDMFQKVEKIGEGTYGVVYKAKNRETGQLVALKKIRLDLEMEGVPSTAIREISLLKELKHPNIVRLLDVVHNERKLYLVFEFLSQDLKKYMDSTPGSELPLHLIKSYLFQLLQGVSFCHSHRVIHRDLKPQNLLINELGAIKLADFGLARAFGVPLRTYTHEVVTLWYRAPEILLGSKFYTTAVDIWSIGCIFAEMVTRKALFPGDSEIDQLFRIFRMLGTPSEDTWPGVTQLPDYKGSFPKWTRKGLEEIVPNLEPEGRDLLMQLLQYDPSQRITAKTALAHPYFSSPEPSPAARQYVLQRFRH
T1 sequence (P11802 2-303 limits assumed): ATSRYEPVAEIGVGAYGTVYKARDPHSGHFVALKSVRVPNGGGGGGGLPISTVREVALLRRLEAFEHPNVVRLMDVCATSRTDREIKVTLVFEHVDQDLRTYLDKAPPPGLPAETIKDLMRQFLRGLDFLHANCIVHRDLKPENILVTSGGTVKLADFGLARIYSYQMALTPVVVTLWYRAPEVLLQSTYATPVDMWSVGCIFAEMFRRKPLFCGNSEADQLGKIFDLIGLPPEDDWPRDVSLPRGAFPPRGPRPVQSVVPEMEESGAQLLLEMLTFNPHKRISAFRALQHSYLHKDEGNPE
T3 sequence (P00546 whole entry): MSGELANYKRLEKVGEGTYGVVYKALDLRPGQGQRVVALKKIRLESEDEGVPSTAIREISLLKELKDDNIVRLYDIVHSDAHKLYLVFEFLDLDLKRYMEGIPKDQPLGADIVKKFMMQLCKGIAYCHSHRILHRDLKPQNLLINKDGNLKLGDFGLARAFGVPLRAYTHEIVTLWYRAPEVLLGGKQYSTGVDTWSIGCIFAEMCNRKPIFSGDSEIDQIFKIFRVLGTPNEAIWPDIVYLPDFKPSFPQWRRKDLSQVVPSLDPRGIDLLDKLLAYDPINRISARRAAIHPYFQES
T4 sequence (P06493 whole entry): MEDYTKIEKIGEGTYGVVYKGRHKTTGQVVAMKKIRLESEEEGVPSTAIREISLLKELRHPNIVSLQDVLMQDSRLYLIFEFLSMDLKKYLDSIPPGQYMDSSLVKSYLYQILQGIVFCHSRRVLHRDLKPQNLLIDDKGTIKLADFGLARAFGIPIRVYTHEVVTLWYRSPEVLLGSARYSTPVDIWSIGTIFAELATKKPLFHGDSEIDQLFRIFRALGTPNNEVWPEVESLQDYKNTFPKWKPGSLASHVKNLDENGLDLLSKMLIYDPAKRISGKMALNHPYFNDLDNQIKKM

Row | Binder | binding result (Cdk4 [1]) | binding result (LexA-Cdk3 bait) | binding result (CDC28) | binding result (Cdc2) | binding result (Drosophila Cdc2c) | binding result (Cdk6) | binding result (Cdk7) | binding result (Cdk4 [2]) | binding result [3] | binding result [4] | binding result [5] | binding result [6] | binding result [7] | binding result [8] | fold decrease in plating efficiency of a Cdk2-dependent cdc28-1N yeast strain at the restrictive temperature [9]
1 | B1 | no binding | no binding | no binding | no binding | no binding | – | – | – | – | – | – | – | – | – | –
2 | pep11 (designed binder, not shown: small tags and cut ends, Peptide loop sits in the TrxA active-site loop; flanking Cys33 and Cys36 may form a disulfide, The purified His6 form is m45) MSDKIIHLTDDSFDTDVLKADGAILVDFWAEWCGPWRRMELDAEIRWVKPISPLEGPCKMIAPILDEIADEYQGKLTVAKLNIDQNPGTAPKYGIRGIPTLLLFKNGEVAATKVGALSKGQLKEFLDANLA | – | no binding | no binding | no binding | no binding | no binding | no binding | no binding | – | – | – | – | – | – | –
3 | pep10 (designed binder, not shown: small tags and cut ends, Peptide loop sits in the TrxA active-site loop; flanking Cys33 and Cys36 may form a disulfide, The purified His6 form is m44) MSDKIIHLTDDSFDTDVLKADGAILVDFWAEWCGPQVWSLWALGWRWLRRYGWNMGPCKMIAPILDEIADEYQGKLTVAKLNIDQNPGTAPKYGIRGIPTLLLFKNGEVAATKVGALSKGQLKEFLDANLA | – | no binding | no binding | no binding | no binding | no binding | no binding | no binding | – | – | – | – | – | – | –
4 | B2 | no binding | no binding | no binding | no binding | no binding | – | – | – | – | – | – | – | – | – | –
5 | B3 | no binding | no binding | no binding | no binding | no binding | – | – | – | – | – | – | – | – | – | –
6 | B4 | – | – | – | – | – | – | – | – | no binding | no binding | no binding | no binding | no binding | no binding | –
7 | peptide 13 (FIG. 3A/3B numbering), thioredoxin prey fusion (designed binder, not shown: large carriers; small tags and cut ends, peptide loop embedded in the thioredoxin active-site loop between Cys33 and Cys36 (may form a disulfide)) MSDKIIHLTDDSFDTDVLKADGAILVDFWAEWCGPSVRMRYGIDAFFDLGGLLHGGPCKMIAPILDEIADEYQGKLTVAKLNIDQNPGTAPKYGIRGIPTLLLFKNGEVAATKVGALSKGQLKEFLDANLA | – | – | – | – | – | – | – | – | – | – | – | – | – | – | 10 fold
8 | pep5 (designed binder, not shown: large carriers; small tags and cut ends, peptide loop embedded in the thioredoxin active-site loop between Cys33 and Cys36 (may form a disulfide), the purified His6 form is m42) MSDKIIHLTDDSFDTDVLKADGAILVDFWAEWCGPSVRMRYGIDAFFDLGGLLHGGPCKMIAPILDEIADEYQGKLTVAKLNIDQNPGTAPKYGIRGIPTLLLFKNGEVAATKVGALSKGQLKEFLDANLA | – | binds | no binding | no binding | no binding | no binding | no binding | no binding | – | – | – | – | – | – | –
9 | pep2 (designed binder, not shown: small tags and cut ends, Peptide loop sits in the TrxA active-site loop; flanking Cys33 and Cys36 may form a disulfide, the purified His6 form is m40) MSDKIIHLTDDSFDTDVLKADGAILVDFWAEWCGPLVCKSYRLDWEAGALFRSLFGPCKMIAPILDEIADEYQGKLTVAKLNIDQNPGTAPKYGIRGIPTLLLFKNGEVAATKVGALSKGQLKEFLDANLA | – | no binding | no binding | no binding | no binding | no binding | no binding | no binding | – | – | – | – | – | – | –
10 | pep8 (designed binder, not shown: large carriers; small tags and cut ends, peptide loop embedded in the thioredoxin active-site loop between Cys33 and Cys36 (may form a disulfide), The purified His6 form is m43) MSDKIIHLTDDSFDTDVLKADGAILVDFWAEWCGPYSFVHHGFFNFRVSWREMLAGPCKMIAPILDEIADEYQGKLTVAKLNIDQNPGTAPKYGIRGIPTLLLFKNGEVAATKVGALSKGQLKEFLDANLA | – | no binding | no binding | no binding | no binding | no binding | no binding | no binding | – | – | – | – | – | – | –
11 | B5 | no binding | no binding | no binding | no binding | no binding | – | – | – | – | – | – | – | – | – | –
12 | B6 | no binding | no binding | no binding | no binding | no binding | – | – | – | – | – | – | – | – | – | –
13 | B7 | no binding | no binding | no binding | no binding | no binding | – | – | – | – | – | – | – | – | – | –

Reference: patent publication US20090130676A1 (GENERAL HOSPITAL, published 2009)
